We go through two molecules from PMC3563628, “Prevalence, Specificity and Determinants of Lipid-Interacting PDZ Domains from an In-Cell Screen and In Vitro Binding Experiments” (PLoS ONE, 2013).

Experiment [1] concerns eYFP-S1PDZ1-CASK in MCF-7 cells. The experiment is described as follows: Pharmacological treatment, plasma membrane localization of eYFP-S1PDZ1-CASK. It counts as cell-based.
For experiment [2], the system named is eYFP-S1PDZ1-MAGI3_3 and eYFP-S1PDZ1-IL16_1 in MCF-7 cells. Description: Pharmacological treatment, peroxisomal enrichment of eYFP-S1PDZ1-MAGI3_3 and eYFP-S1PDZ1-IL16_1. It counts as cell-based. Particulars: wortmannin 500 nM, LY294002 50 µM, ionomycin 10 µM.
The subject of experiment [3] is eYFP-S1PDZ1-MPDZ_7 in MCF-7 cells. Description: Pharmacological treatment, plasma membrane localization of eYFP-S1PDZ1-MPDZ_7. It counts as cell-based. Particulars: ionomycin 10 µM.
Experiment [4] in a line: SPR binding to PS liposomes. Particulars: 10% PS in DOPC, 100% DOPC as reference. An excerpt: (§1) As an alternative in vitro approach we performed lipid blot assays using commercially available membranes pre-spotted with PtdIns, PtdIns4P, PtdIns(4,5)P2 and PtdIns(3,4,5)P3 as well as other abundant lipids (Fig. 4B–C). IL16_3 and PDZD2_3, were excluded from this analysis due to their high binding to the blank immobilized spot. […] Other PtdInsPs-PDZ interactions were confirmed. Discrepancy between SPR and lipid blot approaches can be easily explained by the fact that the latter method is highly koff-dependent. […] We therefore performed SPR experiments with five selected PDZ domains (CASK, DFNB31_1, MAGI1_6, MAGI3_3 and SLC9A3R2_1) and two selected lipids, PS and PE, embedded in DOPC liposomes (10% PS or 40% PE in a DOPC using 100% DOPC as reference). […] We have previously reported that weak electrostatic interactions with PS reinforce the interactions of the second PDZ domain of Polychaetoid with PtdIns(4,5)P2 containing liposomes. We therefore investigated, for the same five PDZ domains, how the apparent PtdIns(4,5)P2 affinities were affected by presenting the lipid in the background of liposomes mimicking biological membrane lipid composition ([…], 20% PS, 40% PE and 5% PtdIns(4,5)P2).
(§2) SPR experiments were performed in a BiacoreT100 (GE Healthcare) at 25°C in 25 mM HEPES, 150 mM NaCl, pH 7.2 and 1 mM beta-mercaptoethanol with a flow rate of 30 µl/min. […]

A short description of experiment [5]: SPR equilibrium binding of his-tagged PDZ domains to PtdIns(4,5)P2 liposomes. Particulars: SPR equilibrium analysis, 5% PtdIns(4,5)P2 in DOPC liposomes, 25°C, pH 7.2; read-out: KD app PtdIns(4,5)P2.
Experiment [6] in a line: SPR binding to PE liposomes. Particulars: 40% PE in DOPC, 100% DOPC as reference.
Description: as §1, §2
Background: In SPR one partner is held on a chip, and binding of the other changes the refractive index at the surface.

The nature of experiment [7]: SPR binding to PtdIns(4,5)P2 in composite liposomes mimicking biological membrane. Particulars: 30% PC, 20% PS, 40% PE and 5% PtdIns(4,5)P2.
Description: as §1, §2

Experiment [8] is described as follows: SPR equilibrium binding of his-tagged PDZ domains to various PtdInsPs species. Particulars: recombinant PDZ domain over PtdInsPs liposomes.
Experiment [9] addresses C-terminal peptide of usher (FTDTHL). Description: Equilibrium peptide binding titration followed by intrinsic tryptophan fluorescence. Particulars: Y167W mutation introduced as fluorescent probe; protein 3 µM; 25°C, pH 7.2. An excerpt:
Given the overall low PtdInsPs specificities, and often modest PtdInsPs affinities, it is unlikely that PtdInsPs bindings alone target the PDZ domains to their defined subcellular compartments. Plausibly, peptide interactions are also involved in controlling the subcellular targeting. To address the interplay between PtdInsPs and peptide-binding we chose DFNB31_1 and CASK as models, taking two of the PDZ domains with well-defined cognate peptides. Cognate peptide ligands were the C-terminal peptides of usher (FTDTHL) for DFNB31_1 [50] and the TKEFYA peptide of syndecan-2 for CASK [51]. We measured the PDZ-peptide affinities by a fluorescence-based approach (Fig. 4E), by engineering Trp into the PDZ scaffolds and following the interactions by changes in intrinsic fluorescence, a strategy previously established for other PDZ domains (KD-values: DFNB31_1/Y167W for FTDTHL 46±6 µM; CASK/I157W for TKEFYA 280±20 µM), [52]. We then determined the apparent PtdIns(4,5)P2 affinities in presence of a (close to) saturating concentration of respective peptide (1 mM). The FTDTHL peptide appeared to compete for DFNB31_1-PtdIns(4,5)P2 interactions (KD ^PtdIns(4,5)P2 in presence of peptide >30 µM, Fig. 4F), which might indicate overlapping binding sites. […] We have previously reported on competitive binding by peptide and PtdIns(4,5)P2 with CASK [13]. However, in these experiments the peptide was linked to sepharose beads and PtdIns(4,5)P2 was present on micelles, which made it more difficult for the PDZ domain to simultaneously interact with the two ligands.
Spectrofluorimetric measurements were performed at 25°C in 25 mM HEPES, 150 mM NaCl, pH 7.2 and 1 mM beta-mercaptoethanol in a Carry Eclipse Spectrofluorimeter (Varian). The peptides corresponded to the C-termini of syndecan-2 (TKEFYA) and usher (FTDTHL) and were of high purity (purity >95%, GeneCust), and the experiment were performed and analyzed as described previously. Urea induced equilibrium unfolding experiments were performed using 1 µM of proteins (excitation 280 nm emission 320–380 nm) and the data fitted by a standard two-state model.

`C[C@H](CCC(=O)O)C[C@H](C)C[C@H](C)C(=O)/C=C(\O)[C@H](C)C[C@H](C)C/C=C/[C@@H](C)[C@@H](O)[C@@H](C)[C@@H](O)C[C@@H]1CC[C@@](C)([C@H]2CC[C@@](C)([C@@H](C)O)O2)O1` [ionomycin]: in [1], the “plasma membrane localization of eYFP-S1PDZ1-CASK upon treatment” value is recorded as “loss of membrane localization”. Further, in experiment [2], the “peroxisomal enrichments of eYFP-S1PDZ1-MAGI3_3 and eYFP-S1PDZ1-IL16_1 upon treatment” value is listed as “did not alter”. Besides, the “plasma membrane localization of eYFP-S1PDZ1-MPDZ_7 upon treatment” value in experiment [3] is reported as “not”.

B1: DFNB31_1: recombinant his-tagged first PDZ domain of human DFNB31 (protein)
chain: GEVRLVSLRRAKAHEGLGFSIRGGSEHGVGIYVSLVEPGSLAEKEGLRVGDQILRVNDKSLARVTHAEAVKALKGSKKLVLSVYSAGRI
modifications: left off: His6, N-terminal, state not stated
notes: recombinant his-tagged first PDZ domain of human DFNB31
As for B1, the “PS binding, in words” value in experiment [4] was “low affinity interactions”. The Kd came out at 7.8 ± 2 µM in experiment [5], 2.7 ± 1 µM in experiment [7] and 46 ± 6 µM in experiment [9]. The “PE binding, in words” value in experiment [6] is on record as “did not observe any detectable PDZ-PE binding”. In addition, the “PtdInsPs binding in vitro, in words” value in [8] is reported as “high-affinities”.
